From the DeepSol protein solubility set

Assay: soluble on expression in E. coli; label from the status in PepcDB or PDB records

Sequence | soluble on expression in E. coli
MRPEERRRHILELLRQRERISVDELARTLSTSQETIRRDLAALAEQGLVSKFHGGAALPPSGEHENAFQTRMNEHAQEKRAVARYAAGLFGPGDSIFIDTGTTTLLFARELARQSHLTVITNSLLIAGSVGASGNRAFMIGGEYRPESEQNVGALAIEQIARFNAEHAVITVGALNGDGAMDFSIEEAEIARAMIAQARQLTVIADSSKLGRRALFQVFPLSRINRLVVDRKPTGELWEALQQARVEVHEAPLRTPQALEHHHHHH | not soluble
MGSDKIHHHHHHMKKGILIETDNVTRLRAAVKQAEDTERGRPGMVAVWGEAGAGKTIAAHSLYAQRGGVFLRAMEGMSQHAFLQELCWEVKGTRPHGSHRCRADILRALEEEPATVYVDEADRLDLRRLEDLRDIHDITGCPVVLIGEQHLPGKLAERTRIDDRIPEEYRVPFSGITPRDVSLFALEAAEIVLTPGAAGLIHKQAKGNFRRIHNLMLSVESAARAHDTTEVDEALVRAAMPAARSSASRAPRRGQHA | not soluble
MGSDKIHHHHHHVKIALDPTPFHHSHTLLEFPRVVADLGYKYMQMTPHADFIPFYNHPKADDELVGQLNKACKDVGIEIASVLPVLRWSGPDEDAREAAVRYWKRVIQITVDLGVSTINTEFSGRPEKAEESERAFYRSMEELLPIIEREGLDLLIDPHPDDFVEEGLAAIRVIRGLNSKNVGLVYVASHSFHMKNAPLDIMRAAGDKLRLVHVADTMNHHASHGLRYITNPPGNPVRVHQHLKIGDGDVNWEEFFGGLQEIGFLDREDTVMVSSVFAEDENAAEVSRYQLVTMNNYIATAR | not soluble
MIMSEMITRQQVTSGETIHVRTDPTACIGSHPNCRMFIDSLTIAGEKLDKNIVAIDGGEDVTKADSATAAASVIRMSITPGSINPTISITLGVLIKSNVRTKIEEKVSSILQASATDMKIKLGNSNKKQEYKTDEAWGIMIDLSNLELYPISAKAFSISIEPTELMGVSKDGMRYHIISIDGLTTSQGSLPVCCAASTDKGVAKIGYIAAA | soluble
MGSDKIHHHHHHMRKSIVLSTAMALAAGTAAYAAEISDGKVKIGILNDQSGVYANFGGKYSYEAAKMAVEDFGGKVLGAPVEVVTADHQNKADVASNIARQWYDTEQVDSIMELTSSSVGLAVQALSKDKKKITVNTGAATTELTGKQCSPYGFHWAYDTYSLAVGTGGALVKQGGDSWFFLTADYAFGYSLEENTSNFVKANGGKVLGSVRHPLATTDYSSFLLQAQSSGAKVIGLANAGLDTSNAIKQASEFGIVAGGQRLAALLFTLAEVHGLGLEAAQGLTLTEGFYWDRDDESRKFGERFKERTGAMPNMIHTGTYSAVLHYLKAIEKAGTDDADAVAKAMKEMPVNDVFAKDGHVAANGRMIHDMYLMEVKKPDESKQPWDYYKVLATIPGKEAFMDPTKSGCPLVKQ | not soluble
MAKNDKINFSTPSGFPEFLPSEKRLELYLLDTIRRVYESYGFTPIETPAVERLEVLQAKGNQGDNIIYGLEPILPPNRQAEKDKSGDTGSEARALKFDQTVPLAAYIARHLNDLTFPFARYQMDVVFRGERAKDGRFRQFRQCDIDVVGREKLSLLYDAQMPAIITEIFEAVNIGDFVIRINNRKVLTGFFQSLNISETQIKSCISIIDNLEKIGEAKVKLELEKEGINPEQTQKIIDFVKIDGSVDDVLDKLKHLSQTLPESEQFNLGVSELETVITGVRNLGVPDKRFCIDLAIARGLNYYTGTVYETTLIGHEALGSICSGGRYEELVGTFIGEKMPGVGISIGLTRLISRLLKAGILNTLPPTPAQVVVVNMQDELMPTYLKVSQQLRQAGLNVITNFEKRQLGKQFQAADKQGIRFCVIIGADEAAAQKSSLKDLQSGEQVEVALADLAEEIKRRLT | soluble
MSLRLQFQLKVDGLEDESLVVRGFEGQESLSDSVWRCEPCYGFRYQVDLASALSNLTAEQFVDQTAHLTILRDGQVVQQINGIVRQLSKGDTGHRHTFYSLTLVPALERLSLRSNSRIFQQQSVPEIISILLQEMGIEDYAFALKRECAQREFCVQYRETDLQFLHRIAAEEGLVYSHLHEAQKHTLLFTDSSDSQPKLAKPVPYNALAGGEINLPYVVDLQFKTTAQVSHTELKDYSFKKPAYGFTQRTQGKDIAYQQPNYEHFDAPGRYKDDANGKAFSQIRLEYLRRDALLADAKSDEPLLLAGVRFDLQDHLDHAMNRDWLVVQANHQGTQPQALQEEGGSGATTYSNQLKLIPAHITWRARPCAKPQVDGPMIATVVGPQGEEIYCDNFGRVKVHFPWDRYSSSNEKSSCWVRVAQEWAGSQYGSMAIPRVGHEVIVSFLNGDPDQPIITGRTYHATNTAPYALPDHKTKTVLRTETEGHHHHHH | soluble
MSLSDSQTLVVKLGTSVLTGGSRRLNRAHIVELVRQCAQLHAAGHRIVIVTSGAIAAGREHLGYPELPATIASKQLLAAVGQSRLIQLWEQLFSIYGIHVGQMLLTRADMEDRERFLNARDTLRALLDNNIVPVINENDAVATAAIKVGDNDNLSALAAILAGADKLLLLTDQKGLYTADPRSNPQAELIKDVYGIDDALRAIAGDSVSGLGTGGMSTKLQAADVACRAGIDTIIAAGSKPGVIGDVMEGISVGTLFHAQATPLENRKRWIFGAPPAGEITVDEGATAAILERGSSLLPKGIKSVTGNFSRGEVIRICNLEGRDIAHGVSRYNSDALRRIAGHHSQEIDAILGYEYGPVAVHRDDMITREGHHHHHH | soluble
MGSDKIHHHHHHMSYLKISDTIVETFRFIHYEQSNFLNRLHGGDMLFFLVETGMISASKVAMGTTLLASLDDVVFKKPVRLGDIVKVRAKTVYIGNTSLEVEVRAFVRDEEVVSAYATYVKVDDLLRPTPVNVKIMAESEDDKRKIDEAKKRRENRLSKIVNRQKMRFYVDDITDGLRYRISNVIHVSPELTYDGRIMSAGKLLKLMDDLGGIICLRYLDHNSSNLYDNSFNAVVTVAVKGLAFYSPIRLNDIILIRAGLVYVGNTSADILINVVREDLNGAKEHVATAYFTYVRVDKDGKPIKIPEYTPVTEREKRLYEEALTRRGLRK | not soluble
MYEYLLLTRKNALFSLAINEPSPTFALTIIAIFSSTNVRSSVVRLGCFRVEICCTCHTQYLKLEIMVIISYLKYVNLPCSFIFISNSFALVFKISAEV | soluble
MPKASQETKGLGSYDPKSATEKKFVITHRIKNISTLNIGNTYTSDVEDHFGFLWHLSYIYDGRFLRTTLNIDVNGRSALWSVGMKVRHMFVTKNGADHFHNSTDHVFSQEHNYGLTAITFFEDIKNKIFDDDMVYVDVEVTITKTSGFDRKKLRNFDTPENDWHVVLVAGGQKFYARTVVICNPNTDICELDVARGTEIVLENEDPLDLQIFLEALHGEDVISDTTLEIILLLAIKYRAIEIFSKCEKWLLEGSKMSPRKQLQMAIRCSFWELEQKCLSELKTKQDIQAVLPANLMSLDPNMVLTLFEKLLTVT | soluble
MSLFLKDDSIQIREVWNDNLQEEMDLIRDVVDDFPYVAMDTEFPGIVVRPVGTFKSNADYHYETLKTNVNILKMIQLGLTFSNEQGNLPTCGTDKYCIWQFNFREFDLDSDIFALDSIELLKQSGIDLAKNTLDGIDSKRFAELLMSSGIVLNENVHWVTFHSGYDFGYLLKLLTCQNLPDSQTDFFKLINVYFPTVYDIKHLMKFCNSLHGGLNKLAELLEVERVGICHQAGSDSLLTSCTFRKLKENFFVGPLHKYSGVLYGLGVENGQVAI | soluble
MINKLKENIGSVFVGKENVIDLLLVSLLADGHVLLENVPGTGKTLLAKTISKSIGGSFSRVQFTPDVLPSDVTGIEYFNPKTSEFELRIGPVMTNILLADEINRAMPRTQSSLLEAMEERQVTLEKQSTPLPKPFFVIATQNPIESQGTFPLPDAQLDRFLMTISIGHPTPKDELQMMRRFRNDLPLESVTSVISLEDILEAQKRVKEIFVSEPLEHYIIKLAHATRNHDYIANGVSPRATLALVRAVQALAFLRGREYCTPEDIQLLVPSVWNHRIVLSMEGALRTTKNDIMQSILKEVDVPVEIEQA | not soluble
MELISIIVPVYNGEIYIGRCLDSILEQTYQNLEIIIIDDGSSDRTGDICEKYFLEDRRIKYFYQENRGQSVARNNGVLRCTGDWIAFLDSDDVYLPYSIEVMYNIQKATNADIVLTSIGNFNNTYNTSINSQYLKEIKLYTLEVALEEMYYGKTYGVSPLAKLYPRSNLLSNPYPEGKIHEDMDTTFKLISCASKIAVCDIVTAVVYFSDNSTTRTKFNERMLYFFEAIQNNIVFINLNFPHNTSLISAVIYNEVFGGIDICGKMIDFKLYDTVDYYRKKYRKYFKTILFNNRISVKEKVKYILFISSIRYFTIVRKIYNLRLSRNGLEHHHHHH | not soluble
MEAFIRSDQYNFIKSQAYILANGHATANDRGVIQALKSLAIEKIIHVFENLTDEQKELIDTVLTVQNREDAESFLTKINPYVIPFQEVTAQTLKKLFPKAKKLKLPDMEEMDMKEISYLSWVDKGSSRKFIIAKNDKNKFVGLQGTFQSLNKKSICSLCHGHEEVGMFLVEIKGDIPGTFVKKGNYICKDGVACNQNMKSLDKLQDFIERLKK | not soluble
MTFGEKLLNAASTRGRLCVGIDPHESLLTSWGLPVNVDGLAEFSRACVEAFADTVALVKPQVAFYERFGSAGFAILEETIQTLRERGCLVVSDAKRGDIGSTMAGYASAWLDPASPLSSDAVTVSPYLGFHSLDPVFELAEQHGRGVFVLAATSNPEARELQDQQNADGVSISQQIVDQAAALNAPYMAQGKAGNIGVVIGATLSKPPRLSTLGGAILMPGVGAQGGTASDVDEIAGDMAHLAFPNVSRSILATGPDIAEMKNSVAKNAADFPGFPRS | soluble
MSLNLSRIGLDLAKQVFQVHGVDRHEHVVCRRQLKRAQVRDFFRQLPPCLVAMEACGSAHYWARELRELGHTVRLIAPQFVKPYVKGDKHDAHDAEAICEAASRPSMRYVPVKSAEQQAVQSMHRVRSRLVRARTALCNEVRGLLGEFGLIATRRGRAATMALLETVMATEPAPLPAPMGELLRELKDELQTLEARIARLERQIQAHVRGDARIQRLLAVEGIGPISASAVAASAGDARQFRTGRQFAAWLGLVPRQHSTGGQQRLGNISKRGDTYLRTLLIHGARAVVRCCANKTDARSRWLQGLLQRRPANVVAVALANKNARILWALLSRETCYRPGEGHHHHHH | not soluble
MFSGKRLKKRRITLGYSQSELADKLHINRSSYFNWENEKTKPNQSNLKQLAILLDVPETYFESEYKIVNTYLQLSLQNQEKVEKYAEELLQTQKVHEKIVPLFAVEVLSEIQLSAGPGEGLYDEFETETVYSEDEYTGFDIATWISGNSMEPVYKDGEVALIRSTGFDHDGAVYALNWNGSLYIKKLYREEDGFRMVSINPDVAERFIPFEDEIRIVGKIVGHFMPVIGGLEHHHHHH | soluble
MSLRLGVTGLSRAGKTVFISSLVHNLLNGGRLPLFEAMRSGRVSNVRLEPQPDDAIPRFQYEDHIQALVRDRLWPDSTRAISELRITLDYQSASGWGRWFSAGKLSIDIVDYPGEWLLDLPLLSQDYKQFSDATVALAGSGIRAELAQEWLAIASSLDINAPADEMTARRLAESFAAYLKACKSDERSLSTLPPGRFLMPGDLEGSPALTFAPLPGVTDAKAPKGSLRAMMERRYDAYKSIVVKPFFREHFARLDRQIVLIDTLQAVNRGPEAVQDLERALGDVLACFRPGTNSILSSLIRRRIDKVLIAATKADHLHHESHDRLERLTRRLVDRAITTIGMNGAGIEVMALASVRATREASVRQDGHELPVIVGTPMAGETINGEIFDGNRKTAIFPGDLPEDPEPLFRSIDQDGDKATLPDVNVVRFRPPNIDEPGSGGIRLSVPHIRLDRAMQFLFGDKLAEGHHHHHH | soluble
MSLKALIIMDMTNDFVFEKYEHEGKEYEGRLVAPLGKTIVEPIEALVKKVVNSGTVSLFRISKDHYDAFTNPELELKVAELGIDEVFMTGLVDEVCIYHNTLGFLERGFRTNVVRGCTAPFDPEKGRESLGELDACGTKMVDDIPSDIGVILLLEDEHDENSEEIKSGSWPPHSMKGTPGALTIKPIREALESREGHHHHHH | soluble
